The results in this text go back to US20120321619A1 (Bayer, published 2012).

The target in experiment [1] is T1, human C4.4a natively expressed on tumor cell lines (human, UniProt O95274 31-326).
T1 construct: whole, on cells; also called NCI H292; NCI H322
T1 sequence (looked up): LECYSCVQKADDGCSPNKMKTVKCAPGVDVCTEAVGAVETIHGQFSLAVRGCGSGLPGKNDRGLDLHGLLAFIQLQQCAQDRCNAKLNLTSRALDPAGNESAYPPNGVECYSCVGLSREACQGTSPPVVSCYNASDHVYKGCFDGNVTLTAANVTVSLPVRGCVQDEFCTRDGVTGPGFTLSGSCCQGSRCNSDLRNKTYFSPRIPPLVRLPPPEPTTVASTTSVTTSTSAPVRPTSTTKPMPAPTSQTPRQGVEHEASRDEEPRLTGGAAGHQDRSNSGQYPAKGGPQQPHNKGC
In words: FACS titration on H1975/BCRP cells (native C4.4a), IgG1 format, phycoerythrin-labelled goat anti-human IgG detection. The procedure:
(§1) FACS titration was performed in a 96 well microtiter plate, in which serial dilutions of the primary antibody in a volume of 50 W of FACS buffer (3% FCS, in PBS) were mixed with 50 μl of a cell suspension consisting of 2×10^5 cells/ml which had been detached with Cell Dissociation Solution (1×) Non-enzymatic (Sigma), and resuspended in FACS buffer. Incubation was performed at 4° C. for 1 hour with agitation. Cells were pelleted, washed with FACS buffer and resuspended in 100 μl/well of Phycoerythrin labeled goat anti human IgG (Dianova) solution in FACS buffer. Incubation and washing was performed as before. Analysis of cell-bound antibodies was done at the respective detection wavelength using the FACS Array device. EC₅₀ values were determined from fluorescence medians of duplicates using Swift 8.0 software.

Experiment [2] deals with T2, human C4.4a on transfected A549:hC4.4a cells (human, UniProt O95274 31-326).
T2 construct: full length GPI-anchored form, stably transfected; also called C4.4a:A549
T2 sequence: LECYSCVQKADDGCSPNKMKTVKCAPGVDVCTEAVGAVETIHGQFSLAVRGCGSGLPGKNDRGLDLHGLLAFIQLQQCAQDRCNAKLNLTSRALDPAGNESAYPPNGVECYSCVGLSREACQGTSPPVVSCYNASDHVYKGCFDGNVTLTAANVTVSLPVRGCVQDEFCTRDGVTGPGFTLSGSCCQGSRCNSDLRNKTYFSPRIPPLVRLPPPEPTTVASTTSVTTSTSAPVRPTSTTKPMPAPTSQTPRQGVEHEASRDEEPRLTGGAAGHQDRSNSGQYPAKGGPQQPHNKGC
Description: FACS titration on transfected A549:hC4.4a cells (printed 'A549:C4.4a'), IgG1 format, phycoerythrin-labelled goat anti-human IgG detection. As for the experimental part:
as §1

For experiment [3], the target named is T1, human C4.4a natively expressed on tumor …. In words: FACS titration on NCI H322 cells (native C4.4a), IgG1 format, phycoerythrin-labelled goat anti-human IgG detection. The procedure:
as §1

Experiment [4] shares this target. Description: FACS titration on BxPC3 cells (native C4.4a), IgG1 format, phycoerythrin-labelled goat anti-human IgG detection. The procedure: as §1
Experiment [5] shares this target. In words: FACS titration of IgG1 on NCI H292 cells. The procedure: as §1
Experiment [6] addresses T3, hC4.4a domain S2-Fc-his6 (human, UniProt O95274 138-223).
T3 construct: C-terminal human IgG1 Fc-6×HisTag fusion from HEK293 6E cells; also called S2 Fc-6×HisTag; domain S2 of C4.4a
Description: western blot of purified S2-Fc-6×HisTag fusion. The procedure: The SDS gel was then blotted to a iblot gel transfer membrane (Invitrogen IB3010-02) using an iBlot device (Invitrogen). The membrane was blocked in DPBS pH 7.4+4% milk powder+0.1% Tween 20 for 16 h at 4° C., followed by three washing steps for 5 min at 20° C. in DPBS pH 7.4+0.1% Tween 20. M31-B01 (5.76 mg/ml) or M20-D02 S-A (3.49 mg/ml) were applied in dilutions of 1/5000 and 1/2000 respectively and incubated for 1.5 h at 20° C., followed by 2× washes in DPBS pH 7.4+0.1% Tween 20. The second antibody (alk. Phosphatase. Conjugate Goat anti human IgG, Fab specific; 109-055-097 Jackson ImmunoResearch) was incubated at a dilution of 1/1000 for 1.5 h at 20° C. Followed by 3 washing steps for 5 min at 20° C. in DPBS pH 7.4+0.1% Tween 20. Staining was performed with Sigma Fast BCIP/NBT/1 tablet in 10 ml water at 20° C. till the bands became visible. Staining reaction was stopped by washing with water.
On the technique in general: In western blotting, separated proteins are transferred to a membrane and probed.

In experiment [7] the target is T4, recombinant soluble murine C4.4a (mouse, UniProt Q91YK8 33-343, limits assumed).
T4 construct: also called mouse C4.4a; mC4.4a
T4 sequence (looked up): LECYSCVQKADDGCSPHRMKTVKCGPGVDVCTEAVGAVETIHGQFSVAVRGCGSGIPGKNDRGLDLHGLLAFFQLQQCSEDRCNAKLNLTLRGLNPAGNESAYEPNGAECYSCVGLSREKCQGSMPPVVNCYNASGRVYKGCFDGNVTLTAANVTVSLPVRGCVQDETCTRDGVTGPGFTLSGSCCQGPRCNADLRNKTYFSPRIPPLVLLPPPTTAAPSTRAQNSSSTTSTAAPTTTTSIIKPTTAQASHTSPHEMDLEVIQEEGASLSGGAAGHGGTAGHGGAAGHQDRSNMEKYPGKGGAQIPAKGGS
Description: ELISA, IgG1 on coated recombinant murine C4.4a. The procedure: FIG. 2 depicts binding curves of anti-C4.4 antibody M31-B01 and M20 D02 S-A on recombinant human C4.4a (A) and murine C4.4a (B) respectively. Briefly, 96-well MTP were coated for 16 h at 4° C. with recombinant human or mouse C4.4a (100 ng/well plates were washed 3 times with PBS/0.05% Tween 20 (=buffer B) treated with blocking reagent (PBS+2% BSA), and washed again 3 times with buffer B. After that anti C4.4a antibodies of the invention were added in concentrations of 0.39 ng to 400 ng/per well and incubated for one hour at 20° C. After washing 3 times with buffer B, 20 ng of Protein A were added in 100 μl buffer B to each well. Color reaction was developed by addition of 50 W 3,3′,5,5′-Tetramethylbenzidine (TMB) (Sigma). Data for EC₅₀ determination were recorded after 18 min by measuring extinction […] a Tecan infinite plate reader. EC₅₀ values for M31-B01 were 0.24 and 0.29 nM on human and murine C4.4a, respectively. And for M20-D02 S-A EC₅₀ values were 0.3 and 0.38 nM on human and murine C4.4a, respectively. This indicates high affinity binding of anti C4.4a antibodies of the invention to both human and murine soluble recombinant C4.4a.
(In general: In an ELISA, binding on a coated surface is turned into a signal by an enzyme label.)

In experiment [8] the target is T2, human C4.4a on transfected A549:hC4.4a …. In words: cell-based or functional assay.

B1: M20-D02 S-A (antibody, human IgG1, V domains shown)
VH: EVQLLESGGGLVQPGGSLRLSCAASGFTFSDYQMTWIRQTPGKGLEWVSGVSWNGARTHYADSVKGRFTISRDNSKNTLYLQMNSLRAEDTAVYYCAKGDYLVYSAYYFDSWGQGTLVTVTS
VL: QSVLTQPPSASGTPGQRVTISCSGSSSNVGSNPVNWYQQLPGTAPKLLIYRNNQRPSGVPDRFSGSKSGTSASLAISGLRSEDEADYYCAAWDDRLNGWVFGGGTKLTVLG
notes: tested as human IgG1
With B1, the EC50 (usually the concentration at which the effect is half-maximal) in experiment [1] turned out to be 1.3 nM; in experiment [2] it was 4.3 nM; in experiment [3], 1.2 nM; in experiment [4] it was 1 nM; in experiment [5], 1.3 nM; in experiment [7] it was 0.38 nM. For the same molecule, the binding result in experiment [6] is on record as “no binding”. For the same molecule, in experiment [8], the “internalization t½ [min] into A549:hC4.4a cells (CypHer 5E labeled antibody)” value was 60 min.

B2: M31-B01 (antibody, human IgG1, V domains shown)
VH: EVQLLESGGGLVQPGGSLRLSCAASGFTFSNAWMSWVRQAPGKGLEWVSYISSSGSTIYYADSVKGRFTISRDNSKNTLYLQMNSLRAEDTAVYYCAREGLWAFDYWGQGTLVTVTS
VL: QSVLTQPPSASGTPGQRVTISCTGSSSNIGAGYVVHWYQQLPGTAPKLLIYDNNKRPSGVPDRFSGSKSGTSASLAISGLRSEDEADYYCAAWDDRLNGPVFGGGTKLTVLG
notes: tested as human IgG1
Consider B2, for which the EC50 was found to be 0.4 nM in experiment [1]; 1.9 nM in experiment [2]; 0.3 nM in experiment [3]; 0.3 nM in experiment [4]; 0.3 nM in experiment [5]; 0.29 nM in experiment [7]. Further, the binding result in experiment [6] is recorded as “no binding”. For the same molecule, the “internalization t½ [min] into A549:hC4.4a cells (CypHer 5E labeled antibody)” value in experiment [8] amounted to 49 min.
